Target: IFNγR-IL2/IL15R signal converter
Assay: cell-based or functional assay

Chain of IFNγR-IL2/IL15R signal converter (chain, as listed by the source limits assumed, chain 1 of 2): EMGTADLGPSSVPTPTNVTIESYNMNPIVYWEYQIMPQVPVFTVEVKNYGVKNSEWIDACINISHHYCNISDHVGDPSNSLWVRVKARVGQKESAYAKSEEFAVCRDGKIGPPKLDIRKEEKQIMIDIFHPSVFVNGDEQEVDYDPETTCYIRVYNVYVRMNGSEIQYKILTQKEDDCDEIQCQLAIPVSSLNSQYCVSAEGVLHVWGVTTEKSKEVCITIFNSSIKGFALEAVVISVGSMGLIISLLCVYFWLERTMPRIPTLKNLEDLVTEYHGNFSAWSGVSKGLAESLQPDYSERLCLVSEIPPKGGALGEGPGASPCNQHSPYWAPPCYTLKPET
Chain of IFNγR-IL2/IL15R signal converter (chain, as listed by the source limits assumed, chain 2 of 2): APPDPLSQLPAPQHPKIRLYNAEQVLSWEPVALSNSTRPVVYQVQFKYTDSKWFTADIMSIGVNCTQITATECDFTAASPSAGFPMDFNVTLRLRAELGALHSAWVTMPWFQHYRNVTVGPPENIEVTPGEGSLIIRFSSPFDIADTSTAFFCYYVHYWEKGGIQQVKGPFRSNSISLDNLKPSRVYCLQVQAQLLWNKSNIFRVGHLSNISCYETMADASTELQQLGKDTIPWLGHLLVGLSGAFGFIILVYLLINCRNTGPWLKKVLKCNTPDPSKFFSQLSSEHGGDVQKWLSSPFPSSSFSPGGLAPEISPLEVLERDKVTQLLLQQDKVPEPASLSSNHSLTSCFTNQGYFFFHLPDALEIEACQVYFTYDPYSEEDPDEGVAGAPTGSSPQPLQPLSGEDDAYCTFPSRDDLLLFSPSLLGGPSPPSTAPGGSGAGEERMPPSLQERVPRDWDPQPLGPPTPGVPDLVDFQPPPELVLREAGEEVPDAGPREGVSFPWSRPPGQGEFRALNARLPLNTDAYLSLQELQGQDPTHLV

IFN-γ (from UniProt P01579 24-166) (ligand)
cell proliferation (Tag-it violet cell tracking staining), 6 days under IFN-γ treatment: 40%
percentage of proliferation (flow cytometry, Tag-it Violet), 6 days, 5 ng/mL IFN-γ: 42.3%

— patent US20250290040A1
